Values of other authors in patent US20170037111A1, “Novel peptides and combination of peptides for use in immunotherapy against ovarian cancer and other cancers” (immatics biotechnologies GmbH, priority 2015, published 2017).

Test system: ovarian cancer
Conditions: clinical studies, phase as stated

B1: abagovomab: anti-CA-125 antibody (antibody, chains of the INN, looked up, V domains shown)
VH: QVKLQESGAELARPGASVKLSCKASGYTFTNYWMQWVKQRPGQGLDWIGAIYPGDGNTRYTHKFKGKATLTADKSSSTAYMQLSSLASEDSGVYYCARGEGNYAWFAYWGQGTTVTVSS
VL: DIELTQSPASLSASVGETVTITCQASENIYSYLAWHQQKQGKSPQLLVYNAKTLAGGVSSRFSGSGSGTHFSLKIKSLQPEDFGIYYCQHHYGILPTFGGGTKLEIK
  clinical effect in ovarian cancer patients: promising results
